This is an account of results in the RNAGym collection of RNA variant scans (doi:10.1021/acssynbio.7b00057).

B1: Pistol ribozyme (parent)
chain: GGGUCGUUGUUCCAUAAUCGCGUGGAUAUGGCACGCAAGUUUCUACCGGGCACCGUAAAUGUCCGACUGGAGCCGUUCGGGCGGCUAUAAACAGACCUCAGGCCCGAAGCGUGGCGGCACCUGCCGCCGGUGGUAAAAAAGAUCGGAAGAGCACACGUCU

The variants in this data set derive from B1. As to the kind of experiment: aptazyme ON/OFF ratio, guanine; higher = stronger switching; co-transcriptional cleavage with and without guanine.
In the case of GGGUCGGAUUCAUAUAAUCGCGUGGAUAUGGCACGCAAGUUUCUACCGGGCACCGUAAAUGUCCGACUGGAGCCGUUCGGGCGGCUAUAAACAGACCUCAGGCCCGAAGCGUGGCGGCACCUGCCGCCGGUGGUAAAAAAGAUCGGAAGAGCACACGUCU [U7G U8A G9U U11C C12A C13U], the “aptazyme ON/OFF ratio” value came to 1.16.

In the case of GGGUCGACAAGUAAUAAUCGCGUGGAUAUGGCACGCAAGUUUCUACCGGGCACCGUAAAUGUCCGACUGGAGCCGUUCGGGCGGCUAUAAACAGACCUCAGGCCCGAAGCGUGGCGGCACCUGCCGCCGGUGGUAAAAAAGAUCGGAAGAGCACACGUCU [U7A U8C G9A U10A U11G C12U C13A], the “aptazyme ON/OFF ratio” value was 1.2.

Consider GGGUCGUUGGACCAUAAUCGCGUGGAUAUGGCACGCAAGUUUCUACCGGGCACCGUAAAUGUCCGACUGGAGCCGUUCGGGCGGCUAUAAACAGACCUCAGGCCCGAAGCGUGGCGGCACCUGCCGCCGGUGGUAAAAAAGAUCGGAAGAGCACACGUCU [U10G U11A], for which the “aptazyme ON/OFF ratio” value amounted to 1.12.

GGGUCGGGGCACAAUAAUCGCGUGGAUAUGGCACGCAAGUUUCUACCGGGCACCGUAAAUGUCCGACUGGAGCCGUUCGGGCGGCUAUAAACAGACCUCAGGCCCGAAGCGUGGCGGCACCUGCCGCCGGUGGUAAAAAAGAUCGGAAGAGCACACGUCU [U7G U8G U10C U11A C13A]: the “aptazyme ON/OFF ratio” value amounted to 1.38.

GGGUCGGAGGUGUAUAAUCGCGUGGAUAUGGCACGCAAGUUUCUACCGGGCACCGUAAAUGUCCGACUGGAGCCGUUCGGGCGGCUAUAAACAGACCUCAGGCCCGAAGCGUGGCGGCACCUGCCGCCGGUGGUAAAAAAGAUCGGAAGAGCACACGUCU [U7G U8A U10G C12G C13U]: the “aptazyme ON/OFF ratio” value is 1.27.

Consider GGGUCGAGAUUCAAUAAUCGCGUGGAUAUGGCACGCAAGUUUCUACCGGGCACCGUAAAUGUCCGACUGGAGCCGUUCGGGCGGCUAUAAACAGACCUCAGGCCCGAAGCGUGGCGGCACCUGCCGCCGGUGGUAAAAAAGAUCGGAAGAGCACACGUCU [U7A U8G G9A C13A], for which the “aptazyme ON/OFF ratio” value was found to be 1.39.

In the case of GGGUCGUUUCUAGAUAAUCGCGUGGAUAUGGCACGCAAGUUUCUACCGGGCACCGUAAAUGUCCGACUGGAGCCGUUCGGGCGGCUAUAAACAGACCUCAGGCCCGAAGCGUGGCGGCACCUGCCGCCGGUGGUAAAAAAGAUCGGAAGAGCACACGUCU [G9U U10C C12A C13G], the “aptazyme ON/OFF ratio” value was found to be 1.61.

Turning to GGGUCGGCGUUUAAUAAUCGCGUGGAUAUGGCACGCAAGUUUCUACCGGGCACCGUAAAUGUCCGACUGGAGCCGUUCGGGCGGCUAUAAACAGACCUCAGGCCCGAAGCGUGGCGGCACCUGCCGCCGGUGGUAAAAAAGAUCGGAAGAGCACACGUCU [U7G U8C C12U C13A], the “aptazyme ON/OFF ratio” value is 1.05.

GGGUCGAGGCAAGAUAAUCGCGUGGAUAUGGCACGCAAGUUUCUACCGGGCACCGUAAAUGUCCGACUGGAGCCGUUCGGGCGGCUAUAAACAGACCUCAGGCCCGAAGCGUGGCGGCACCUGCCGCCGGUGGUAAAAAAGAUCGGAAGAGCACACGUCU [U7A U8G U10C U11A C12A C13G]: the “aptazyme ON/OFF ratio” value was 1.53.

For GGGUCGGCGGUGGAUAAUCGCGUGGAUAUGGCACGCAAGUUUCUACCGGGCACCGUAAAUGUCCGACUGGAGCCGUUCGGGCGGCUAUAAACAGACCUCAGGCCCGAAGCGUGGCGGCACCUGCCGCCGGUGGUAAAAAAGAUCGGAAGAGCACACGUCU [U7G U8C U10G C12G C13G], the “aptazyme ON/OFF ratio” value amounted to 1.13.

Consider GGGUCGUUGAUUGAUAAUCGCGUGGAUAUGGCACGCAAGUUUCUACCGGGCACCGUAAAUGUCCGACUGGAGCCGUUCGGGCGGCUAUAAACAGACCUCAGGCCCGAAGCGUGGCGGCACCUGCCGCCGGUGGUAAAAAAGAUCGGAAGAGCACACGUCU [U10A C12U C13G], for which the “aptazyme ON/OFF ratio” value was 1.33.

Consider GGGUCGGCUUAUGAUAAUCGCGUGGAUAUGGCACGCAAGUUUCUACCGGGCACCGUAAAUGUCCGACUGGAGCCGUUCGGGCGGCUAUAAACAGACCUCAGGCCCGAAGCGUGGCGGCACCUGCCGCCGGUGGUAAAAAAGAUCGGAAGAGCACACGUCU [U7G U8C G9U U11A C12U C13G], for which the “aptazyme ON/OFF ratio” value was 1.17.

As to GGGUCGACUGACCAUAAUCGCGUGGAUAUGGCACGCAAGUUUCUACCGGGCACCGUAAAUGUCCGACUGGAGCCGUUCGGGCGGCUAUAAACAGACCUCAGGCCCGAAGCGUGGCGGCACCUGCCGCCGGUGGUAAAAAAGAUCGGAAGAGCACACGUCU [U7A U8C G9U U10G U11A], the “aptazyme ON/OFF ratio” value was determined as 1.06.

For the variant GGGUCGCAUGAGCAUAAUCGCGUGGAUAUGGCACGCAAGUUUCUACCGGGCACCGUAAAUGUCCGACUGGAGCCGUUCGGGCGGCUAUAAACAGACCUCAGGCCCGAAGCGUGGCGGCACCUGCCGCCGGUGGUAAAAAAGAUCGGAAGAGCACACGUCU [U7C U8A G9U U10G U11A C12G], the “aptazyme ON/OFF ratio” value was determined as 1.21.

GGGUCGCAUAUCAAUAAUCGCGUGGAUAUGGCACGCAAGUUUCUACCGGGCACCGUAAAUGUCCGACUGGAGCCGUUCGGGCGGCUAUAAACAGACCUCAGGCCCGAAGCGUGGCGGCACCUGCCGCCGGUGGUAAAAAAGAUCGGAAGAGCACACGUCU [U7C U8A G9U U10A C13A]: the “aptazyme ON/OFF ratio” value is 1.2.

For the variant GGGUCGCUGUUGUAUAAUCGCGUGGAUAUGGCACGCAAGUUUCUACCGGGCACCGUAAAUGUCCGACUGGAGCCGUUCGGGCGGCUAUAAACAGACCUCAGGCCCGAAGCGUGGCGGCACCUGCCGCCGGUGGUAAAAAAGAUCGGAAGAGCACACGUCU [U7C C12G C13U], the “aptazyme ON/OFF ratio” value was determined as 1.43.

For the variant GGGUCGCUACGGAAUAAUCGCGUGGAUAUGGCACGCAAGUUUCUACCGGGCACCGUAAAUGUCCGACUGGAGCCGUUCGGGCGGCUAUAAACAGACCUCAGGCCCGAAGCGUGGCGGCACCUGCCGCCGGUGGUAAAAAAGAUCGGAAGAGCACACGUCU [U7C G9A U10C U11G C12G C13A], the “aptazyme ON/OFF ratio” value is 1.14.

For GGGUCGAAGUAAUAUAAUCGCGUGGAUAUGGCACGCAAGUUUCUACCGGGCACCGUAAAUGUCCGACUGGAGCCGUUCGGGCGGCUAUAAACAGACCUCAGGCCCGAAGCGUGGCGGCACCUGCCGCCGGUGGUAAAAAAGAUCGGAAGAGCACACGUCU [U7A U8A U11A C12A C13U], the “aptazyme ON/OFF ratio” value is 1.26.
